Common to all, as to experiment: SPR (Biacore); KD of H240-Kn061/H240-Hl071/L73-k0 divided by KD of the variant
Background: SPR reads the build-up and loss of mass on a sensor chip optically.

For assay [1], the target named is T1, FcγRIIb extracellular domain with C-terminal His tag (human, UniProt P31994 43-217).
T1 construct: extracellular domain; also called FcgRIIb; CD32B; not shown: His tag at the C terminus
T1 sequence (looked up): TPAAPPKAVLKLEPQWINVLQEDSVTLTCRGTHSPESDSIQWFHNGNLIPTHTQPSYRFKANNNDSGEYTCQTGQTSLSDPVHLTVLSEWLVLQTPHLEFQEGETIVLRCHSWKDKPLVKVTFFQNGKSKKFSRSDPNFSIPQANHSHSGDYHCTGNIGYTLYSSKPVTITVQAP

Assay [2] concerns the target T2, FcγRIIIa F extracellular domain with C-terminal His tag (human, UniProt P08637 17-208).
T2 construct: extracellular domain; Soluble receptor, F158 allotype; also called FcgRIIIa F; FcgRIIIaF; not shown: His tag at the C terminus

Assay [3] has as its target T3, FcγRIIa H extracellular domain with C-terminal His tag (human, UniProt P12318 34-217).
T3 construct: extracellular domain; Soluble receptor, H131 allotype; also called FcgRIIa H; FcgRIIaH; not shown: His tag at the C terminus
T3 sequence (looked up): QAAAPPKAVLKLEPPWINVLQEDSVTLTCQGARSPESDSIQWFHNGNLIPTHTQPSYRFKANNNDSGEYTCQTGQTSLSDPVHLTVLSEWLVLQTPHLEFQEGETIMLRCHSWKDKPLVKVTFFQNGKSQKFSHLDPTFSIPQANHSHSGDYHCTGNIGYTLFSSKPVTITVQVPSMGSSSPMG

Assay [4] deals with T4, FcγRIIa R extracellular domain with C-terminal His tag (human, UniProt P12318 34-217).
T4 construct: extracellular domain; Soluble receptor, R131 allotype; also called FcgRIIa R; FcgRIIaR; not shown: His tag at the C terminus
T4 sequence (looked up): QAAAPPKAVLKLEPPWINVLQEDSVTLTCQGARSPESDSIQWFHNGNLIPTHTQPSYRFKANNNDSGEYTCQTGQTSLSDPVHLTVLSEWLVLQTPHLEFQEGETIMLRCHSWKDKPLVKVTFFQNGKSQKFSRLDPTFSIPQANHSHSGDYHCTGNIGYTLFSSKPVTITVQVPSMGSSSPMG

Assay [5] concerns the target T5, FcγRIIIa V extracellular domain with C-terminal His tag (human, UniProt P08637 17-208).
T5 construct: extracellular domain; Soluble receptor, V158 allotype; also called FcgRIIIa V; FcgRIIIaV; not shown: His tag at the C terminus

T5 sequence (P08637 17-208 F176V): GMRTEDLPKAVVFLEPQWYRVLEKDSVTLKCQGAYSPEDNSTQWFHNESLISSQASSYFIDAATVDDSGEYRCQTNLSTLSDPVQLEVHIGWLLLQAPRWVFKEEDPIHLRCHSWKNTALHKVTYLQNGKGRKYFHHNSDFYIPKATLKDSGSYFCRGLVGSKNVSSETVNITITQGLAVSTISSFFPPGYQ
T2 sequence (P08637 17-208): as the sequence (P08637 17-208 F176V) above, with V160F counted along it

B1: H240-Kn061/H240-Hl071/L73-k0 variant with V240A introduced into H chain H240-Hl071 (antibody, human IgG1, kappa)
heavy 1: QDQLVQSGAEVKKPGASVKVSCKASGFNIKDTYIQWVRQAPGQGLEWMGRIDPLRKQTKYREKFEGRVTITADTSTNTAYMELSSLRSEDTAVYYCVRSGREFDYWGQGTLVTVSSASTKGPSVFPLAPSSKSTSGGTAALGCLVKDYFPEPVTVSWNSGALTSGVHTFPAVLQSSGLYSLSSVVTVPSSSLGTQTYICNVNHKPSNTKVDKKVEPKSCDKTHTCPPCPAPEYYWGPSVFLFPPKPKDTLMISRTPEVTCVVVDVSDEDPEVKFNWYVDGVEVHNAKTKPREEQYNATYRVVSVLTVLHQDWLNGKEYKCKVSNKALPAPIEKTISKAKGQPREPQVCTLPPSRDELTKNQVSLWCLVKGFYPSDIAVEWESNGQPENNYKTTPPVLDSDGSFFLYSKLTVDKSRWQQGNVFSCSVMHEALHNHYTQKSLSLSP
heavy 2: QDQLVQSGAEVKKPGASVKVSCKASGFNIKDTYIQWVRQAPGQGLEWMGRIDPLRKQTKYREKFEGRVTITADTSTNTAYMELSSLRSEDTAVYYCVRSGREFDYWGQGTLVTVSSASTKGPSVFPLAPSSKSTSGGTAALGCLVKDYFPEPVTVSWNSGALTSGVHTFPAVLQSSGLYSLSSVVTVPSSSLGTQTYICNVNHKPSNTKVDKKVEPKSCDKTHTCPPCPAPELLGGPSAFLFPPKPKDTLMISRTPEVTCVVVDVSHEDPEVKFNWYVDGVEVHNAKTKPREEQYNSTYRVVSVLTVLHQDWLNGKEYKCKVSNDALPMPIEETISKAKGQPREPQVYTLPPSRCELTKNQVSLSCAVKGFYPSDIAVEWESNGQPENNYKTTPPVLDSDGSFFLVSKLTVDKSRWQQGNVFSCSVMHEALHNHYTQKSLSLSP
light: DIQMTQSPSSLSASVGDRVTITCRASQDIHKYIAWYQQKPGQAPRLLIQYTSTLQPGVPSRFSGSGSGTDYTFTISSLQPEDIATYYCLQYEQLRTFGGGTKVEIKRTVAAPSVFIFPPSDEQLKSGTASVVCLLNNFYPREAKVQWKVDNALQSGNSQESVTEQDSKDSTYSLSSTLTLSKADYEKHKVYACEVTHQGLSSPVTKSFNRGEC
notes: Point variant of the heterodimerized anti-epiregulin IgG1 template; also called H240-Hl071 V240A
Turning to B1, the “relative KD” value in assay [1] stood at 1; in assay [2] it was 1.3; in assay [3], 1.2; in assay [4], 1; in assay [5], 1.7.

B2: H240-Kn061/H240-Hl071/L73-k0 variant with Y234E introduced into H chain H240-Kn061 (antibody, human IgG1, kappa)
heavy 1: QDQLVQSGAEVKKPGASVKVSCKASGFNIKDTYIQWVRQAPGQGLEWMGRIDPLRKQTKYREKFEGRVTITADTSTNTAYMELSSLRSEDTAVYYCVRSGREFDYWGQGTLVTVSSASTKGPSVFPLAPSSKSTSGGTAALGCLVKDYFPEPVTVSWNSGALTSGVHTFPAVLQSSGLYSLSSVVTVPSSSLGTQTYICNVNHKPSNTKVDKKVEPKSCDKTHTCPPCPAPEEYWGPSVFLFPPKPKDTLMISRTPEVTCVVVDVSDEDPEVKFNWYVDGVEVHNAKTKPREEQYNATYRVVSVLTVLHQDWLNGKEYKCKVSNKALPAPIEKTISKAKGQPREPQVCTLPPSRDELTKNQVSLWCLVKGFYPSDIAVEWESNGQPENNYKTTPPVLDSDGSFFLYSKLTVDKSRWQQGNVFSCSVMHEALHNHYTQKSLSLSP
heavy 2: QDQLVQSGAEVKKPGASVKVSCKASGFNIKDTYIQWVRQAPGQGLEWMGRIDPLRKQTKYREKFEGRVTITADTSTNTAYMELSSLRSEDTAVYYCVRSGREFDYWGQGTLVTVSSASTKGPSVFPLAPSSKSTSGGTAALGCLVKDYFPEPVTVSWNSGALTSGVHTFPAVLQSSGLYSLSSVVTVPSSSLGTQTYICNVNHKPSNTKVDKKVEPKSCDKTHTCPPCPAPELLGGPSVFLFPPKPKDTLMISRTPEVTCVVVDVSHEDPEVKFNWYVDGVEVHNAKTKPREEQYNSTYRVVSVLTVLHQDWLNGKEYKCKVSNDALPMPIEETISKAKGQPREPQVYTLPPSRCELTKNQVSLSCAVKGFYPSDIAVEWESNGQPENNYKTTPPVLDSDGSFFLVSKLTVDKSRWQQGNVFSCSVMHEALHNHYTQKSLSLSP
light: DIQMTQSPSSLSASVGDRVTITCRASQDIHKYIAWYQQKPGQAPRLLIQYTSTLQPGVPSRFSGSGSGTDYTFTISSLQPEDIATYYCLQYEQLRTFGGGTKVEIKRTVAAPSVFIFPPSDEQLKSGTASVVCLLNNFYPREAKVQWKVDNALQSGNSQESVTEQDSKDSTYSLSSTLTLSKADYEKHKVYACEVTHQGLSSPVTKSFNRGEC
notes: Point variant of the heterodimerized anti-epiregulin IgG1 template; also called H240-Kn061 Y234E
Turning to B2, the “relative KD” value in assay [1] was found to be 0.5; in assay [2], 1.9; in assay [3] it was 0.7; in assay [4], 1.4; in assay [5], 1.6.

B3: H240-Kn061/H240-Hl071/L73-k0 variant with Y235N introduced into H chain H240-Kn061 (antibody, human IgG1, kappa)
heavy 1: QDQLVQSGAEVKKPGASVKVSCKASGFNIKDTYIQWVRQAPGQGLEWMGRIDPLRKQTKYREKFEGRVTITADTSTNTAYMELSSLRSEDTAVYYCVRSGREFDYWGQGTLVTVSSASTKGPSVFPLAPSSKSTSGGTAALGCLVKDYFPEPVTVSWNSGALTSGVHTFPAVLQSSGLYSLSSVVTVPSSSLGTQTYICNVNHKPSNTKVDKKVEPKSCDKTHTCPPCPAPEYNWGPSVFLFPPKPKDTLMISRTPEVTCVVVDVSDEDPEVKFNWYVDGVEVHNAKTKPREEQYNATYRVVSVLTVLHQDWLNGKEYKCKVSNKALPAPIEKTISKAKGQPREPQVCTLPPSRDELTKNQVSLWCLVKGFYPSDIAVEWESNGQPENNYKTTPPVLDSDGSFFLYSKLTVDKSRWQQGNVFSCSVMHEALHNHYTQKSLSLSP
heavy 2: QDQLVQSGAEVKKPGASVKVSCKASGFNIKDTYIQWVRQAPGQGLEWMGRIDPLRKQTKYREKFEGRVTITADTSTNTAYMELSSLRSEDTAVYYCVRSGREFDYWGQGTLVTVSSASTKGPSVFPLAPSSKSTSGGTAALGCLVKDYFPEPVTVSWNSGALTSGVHTFPAVLQSSGLYSLSSVVTVPSSSLGTQTYICNVNHKPSNTKVDKKVEPKSCDKTHTCPPCPAPELLGGPSVFLFPPKPKDTLMISRTPEVTCVVVDVSHEDPEVKFNWYVDGVEVHNAKTKPREEQYNSTYRVVSVLTVLHQDWLNGKEYKCKVSNDALPMPIEETISKAKGQPREPQVYTLPPSRCELTKNQVSLSCAVKGFYPSDIAVEWESNGQPENNYKTTPPVLDSDGSFFLVSKLTVDKSRWQQGNVFSCSVMHEALHNHYTQKSLSLSP
light: DIQMTQSPSSLSASVGDRVTITCRASQDIHKYIAWYQQKPGQAPRLLIQYTSTLQPGVPSRFSGSGSGTDYTFTISSLQPEDIATYYCLQYEQLRTFGGGTKVEIKRTVAAPSVFIFPPSDEQLKSGTASVVCLLNNFYPREAKVQWKVDNALQSGNSQESVTEQDSKDSTYSLSSTLTLSKADYEKHKVYACEVTHQGLSSPVTKSFNRGEC
notes: Point variant of the heterodimerized anti-epiregulin IgG1 template; also called H240-Kn061 Y235N
Consider B3, for which the “relative KD” value in assay [1] was determined as 0.7; in assay [2] it was 1.3; in assay [3], 0.7; in assay [4], 1; in assay [5], 2.

B4: H240-Kn061/H240-Hl071/L73-k0 variant with V240F introduced into H chain H240-Hl071 (antibody, human IgG1, kappa)
heavy 1: QDQLVQSGAEVKKPGASVKVSCKASGFNIKDTYIQWVRQAPGQGLEWMGRIDPLRKQTKYREKFEGRVTITADTSTNTAYMELSSLRSEDTAVYYCVRSGREFDYWGQGTLVTVSSASTKGPSVFPLAPSSKSTSGGTAALGCLVKDYFPEPVTVSWNSGALTSGVHTFPAVLQSSGLYSLSSVVTVPSSSLGTQTYICNVNHKPSNTKVDKKVEPKSCDKTHTCPPCPAPEYYWGPSVFLFPPKPKDTLMISRTPEVTCVVVDVSDEDPEVKFNWYVDGVEVHNAKTKPREEQYNATYRVVSVLTVLHQDWLNGKEYKCKVSNKALPAPIEKTISKAKGQPREPQVCTLPPSRDELTKNQVSLWCLVKGFYPSDIAVEWESNGQPENNYKTTPPVLDSDGSFFLYSKLTVDKSRWQQGNVFSCSVMHEALHNHYTQKSLSLSP
heavy 2: QDQLVQSGAEVKKPGASVKVSCKASGFNIKDTYIQWVRQAPGQGLEWMGRIDPLRKQTKYREKFEGRVTITADTSTNTAYMELSSLRSEDTAVYYCVRSGREFDYWGQGTLVTVSSASTKGPSVFPLAPSSKSTSGGTAALGCLVKDYFPEPVTVSWNSGALTSGVHTFPAVLQSSGLYSLSSVVTVPSSSLGTQTYICNVNHKPSNTKVDKKVEPKSCDKTHTCPPCPAPELLGGPSFFLFPPKPKDTLMISRTPEVTCVVVDVSHEDPEVKFNWYVDGVEVHNAKTKPREEQYNSTYRVVSVLTVLHQDWLNGKEYKCKVSNDALPMPIEETISKAKGQPREPQVYTLPPSRCELTKNQVSLSCAVKGFYPSDIAVEWESNGQPENNYKTTPPVLDSDGSFFLVSKLTVDKSRWQQGNVFSCSVMHEALHNHYTQKSLSLSP
light: DIQMTQSPSSLSASVGDRVTITCRASQDIHKYIAWYQQKPGQAPRLLIQYTSTLQPGVPSRFSGSGSGTDYTFTISSLQPEDIATYYCLQYEQLRTFGGGTKVEIKRTVAAPSVFIFPPSDEQLKSGTASVVCLLNNFYPREAKVQWKVDNALQSGNSQESVTEQDSKDSTYSLSSTLTLSKADYEKHKVYACEVTHQGLSSPVTKSFNRGEC
notes: Point variant of the heterodimerized anti-epiregulin IgG1 template; also called H240-Hl071 V240F
Take B4: the “relative KD” value in assay [1] is 0.9; in assay [2], 1.4; in assay [3] it was 0.9; in assay [4] it was 1.1; in assay [5], 1.
